Residue numbers refer to the chain shown, from its start.
B1: hN1S3-077 (scFv, V domains shown)
VH: EVQLVQSGAEVKKPGAPVKVSCKTSGYGFSNYYMHWVRQAPGQGLEWLGMINPSDGSQHFAQRFRDRVSFTSDTSTSAVYMELAGLRSDDTAVYYCAREKANSMYFDYWGQGTLVTVSS
VL: QSVVTQPPSLSAAPGQRVTISCSGSHSNIGNFYVSWYQQVPGAAPKLLIYDNNERPSGIPDRFSGSKSGTSATLDITGLQTGDEADYYCSTWDRSLSASVFGSGTKLTVL
notes: phage scFv
B2: N1wc13 (scFv, V domains shown)
VH: QVQLVQSGAEVKKPGASVKVSCKASGYNFTGYYMHWVRQAPGQGLEWMGWINPNSGGTNYAQKFQGRVTMTRETSISTAYMELSRLRSDDTAVYYCATDSFDYWGRGTMVTVSS
VL: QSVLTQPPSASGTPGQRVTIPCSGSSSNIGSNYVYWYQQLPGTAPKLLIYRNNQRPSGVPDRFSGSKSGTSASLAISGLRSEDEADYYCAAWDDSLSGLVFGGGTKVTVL
notes: phage scFv
B3: hN1S3-141 (scFv, V domains shown)
VH: B2 VH with M34I, T69I, E73D, M109L
VL: QSVLTQPPSASGTPGQRVTISCSGSYSNIGSNYVYWYQQFPGTAPKLLIYTNNQRPSGVPDRFSGSKSGSSASLAISGLRSEDEADYYCAAWDDSVGVLLFGGGTKLTVL
notes: phage scFv
B4: N1wc72 (scFv, V domains shown)
VH: B2 VH with Q1E, E73D, R106K
VL: B3 VL with S2P, L107V
notes: phage scFv
B5: N1wc131 (scFv, V domains shown)
VH: B2 VH with Q1E, V11A, E73D, R106Q, M109L
VL: SYELTQPPSASGTPGQRVTISCSGTSSNIGINYVYWYQQLPRTAPKLLIYYNNQRPSGVPDRFSGSRSGTSASLAISGLRSEDEADYYCAAWDDSLSGLVFGTGTKLTVL
notes: phage scFv
B6: N1wc476 (scFv, V domains shown)
VH: B2 VH with Q1E, E73D, R106Q, M109L
VL: QAVLTQPSSVSGTPGQTVTISCSGSNSNIGNNYVYWYQQLPGSAPKVVIYRNHQRPSGVPDRFSGSKSGTAASLAISGLRSEDEADYYCASWDDSLSGLVFGGGTKLTVL
notes: phage scFv
B7: N1wc248 (scFv, V domains shown)
VH: B2 VH with Q1E, E73D, T91S, M109L
VL: QSVLTQPPSASGTPGQRVTISCSGSSSNIGSNSVYWYQQFPGTAPKLLIYRNNQRPSGVPDRFSGSKSDTSASLAISGLRSEDEADYYCATWDDSLSGVVFGGGTKLTVL
notes: phage scFv
B8: N1wc135 (scFv, V domains shown)
VH: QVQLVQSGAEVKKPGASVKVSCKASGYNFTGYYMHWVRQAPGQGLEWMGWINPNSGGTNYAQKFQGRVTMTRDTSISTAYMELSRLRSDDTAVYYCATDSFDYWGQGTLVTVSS
VL: B7 VL with Q1L, S2P, T19I, S33Y, F40L, D69G, Y88H, T91A
notes: phage scFv
B9: N1wc572 (scFv, V domains shown)
VH: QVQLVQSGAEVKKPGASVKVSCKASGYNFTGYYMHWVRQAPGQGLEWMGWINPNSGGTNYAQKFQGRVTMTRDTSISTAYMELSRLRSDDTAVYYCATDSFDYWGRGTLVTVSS
VL: LPVLTQPPSASGTPGQRVTISCSGSSSNIGSNPVNWYQQLPGSAPKLLVYSDDQRPSGVPDRFSGSKSGASASLAISGLQSEDESDYYCAAWDDSLNAVVFGGGTKVTVL
notes: phage scFv
B10: N1wc403 (scFv, V domains shown)
VH: B2 VH with Q1E, E73D, M109L
VL: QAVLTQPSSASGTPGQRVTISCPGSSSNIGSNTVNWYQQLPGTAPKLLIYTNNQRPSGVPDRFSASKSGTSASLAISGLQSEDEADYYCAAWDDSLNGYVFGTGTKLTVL
notes: phage scFv
B11: hN1S3-184 (scFv, V domains shown)
VH: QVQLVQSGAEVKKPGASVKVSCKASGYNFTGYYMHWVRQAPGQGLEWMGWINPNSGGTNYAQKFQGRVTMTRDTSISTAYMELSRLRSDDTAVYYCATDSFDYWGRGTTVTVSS
VL: B7 VL with S31G, S33Y, F40L, N52S, D69G, T91A, S97H, V100I
notes: phage scFv
B12: N1wc516 (scFv, V domains shown)
VH: B2 VH with Q1E, Q6E, T69I, E73D, R87T, M109L
VL: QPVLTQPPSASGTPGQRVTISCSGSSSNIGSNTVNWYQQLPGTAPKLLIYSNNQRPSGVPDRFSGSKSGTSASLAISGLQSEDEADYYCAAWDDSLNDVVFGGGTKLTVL
notes: phage scFv
B13: N1wc540 (scFv, V domains shown)
VH: B2 VH with Q1E, E73D, R106Q
VL: QAVLTQPSSASGTPGQRVTISCSGSSSNIGSYTVNWYQQVPGTAPKLLIYSNNQRPSGVPERFSGSKSGTSASLAISGLQSEDEADYYCAAWDDSLSDVLFGGGTKLTVL
notes: phage scFv
B14: N1wc225 (scFv, V domains shown)
VH: B2 VH with V5Q, E73D
VL: QSVVTQPPSVSGAPGQRVTISCTGSSSNIGAGYDVHWYQQLPGTAPKLLIYGNSNRPSGVPDRFSGSKSGTSASLAITGLQAEDEADYYCQSYDSSLSGSVFGGGTKLTVL
B15: N1wc102 (scFv, V domains shown)
VH: B2 VH with S17P, T69A, E73D, R106Q
VL: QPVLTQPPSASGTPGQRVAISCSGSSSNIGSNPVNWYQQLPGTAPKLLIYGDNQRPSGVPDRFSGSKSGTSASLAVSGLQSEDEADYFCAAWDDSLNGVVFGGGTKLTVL
notes: phage scFv
B16: N1wc15 (scFv, V domains shown)
VH: B2 VH with V5Q, E73D, R106Q
VL: not shown
notes: phage scFv
B17: N1wc79 (scFv, V domains shown)
VH: B2 VH with V5Q, E73D, R106Q
VL: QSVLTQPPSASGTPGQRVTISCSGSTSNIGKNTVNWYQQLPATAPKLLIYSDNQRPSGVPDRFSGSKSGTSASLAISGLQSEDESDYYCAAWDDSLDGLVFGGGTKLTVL
notes: phage scFv
B18: hN1S3-035 (scFv, V domains shown)
VH: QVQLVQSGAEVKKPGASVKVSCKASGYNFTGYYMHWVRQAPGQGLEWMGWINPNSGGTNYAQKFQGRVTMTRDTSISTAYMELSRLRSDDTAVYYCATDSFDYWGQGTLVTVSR
VL: B14 VL with S2A, V4L, P8S, L108V
notes: phage scFv
B19: N1wc130 (scFv, V domains shown)
VH: B2 VH with V5Q, E73D, S88P, R106K
VL: B14 VL with S2A, V4L, P8S, S25T, S26G, G52A, S54T, L108V
notes: phage scFv
B20: hN1S3-147 (scFv, V domains shown)
VH: QVQLVQSGPEVKKPGTSVKVSCKASGFTFTSSAVQWVRQARGQRLEWIGWIVVGSGNTNYAQKFQERVTITRDMSTSTAYMELSSLRSEDTAVYYCVADTVYWGKGTLVTVSS
VL: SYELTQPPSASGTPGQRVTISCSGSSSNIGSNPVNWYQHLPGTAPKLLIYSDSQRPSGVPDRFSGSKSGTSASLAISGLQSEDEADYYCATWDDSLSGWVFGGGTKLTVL
notes: phage scFv
B21: hN1S3-082 (scFv, V domains shown)
VH: B20 VH with K105R
VL: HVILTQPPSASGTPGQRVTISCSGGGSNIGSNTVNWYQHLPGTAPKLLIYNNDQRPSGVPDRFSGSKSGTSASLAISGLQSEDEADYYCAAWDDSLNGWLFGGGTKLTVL
notes: phage scFv
B22: hN1S3-133 (scFv, V domains shown)
VH: B20 VH with K105Q
VL: QSVLTQPPSVSEAPRQRVTISCSGSSSNIGNNAVNWYQQLPGEAPKLLIYYDDLLPSGVSDRFSGSKSGSSASLAISGLQAEDEADYYCATWDDSLNAWVFGGGTKVTVL
notes: phage scFv
B23: hN1S3-083 (scFv, V domains shown)
VH: QVQLQQSGPGLVKPSQTLSLTCAISGDSISSSSATWNWIRQSPSRGLEWLGRTYYRSKWYNDYAVSVKSRITIDPDTSKNQFSLQLNSVTPEDTAVYYCARQLGGRIEFWGQGTLVTVSS
VL: QSVLTQPPSASGSPGRSVTISCTGTSRDVGAYNYVSWYQQHPGEAPKLLISEVTKRPSGVPARFSASKSGNTASLTISGLQAEDEGDYYCSSYAGSDSWVFGGGTKLTVL
notes: phage scFv
B24: hN1S3-130 (scFv, V domains shown)
VH: KVQLVQSGAEVKKPGASVKVSCKASGYTFTDFYIHWVRQAPGQGLEWMGWINSKSGDTHYAQKFQGRVTLTRDTSTDTAYMELSRLTSDDTAVYYCARGAYDYVWGSSRYVADAFDIWGRGTMVTVSS
VL: DIVMTQSPSTLSASVGDRVTITCRASQGISSWLAWYQQKPGRAPKVLIYKASTLESGVPSRFSGSGSGTDFTLTISSLQPEDFATYYCQQSYSTPWTFGQGTKLEIK
notes: phage scFv
B25: N1wc160 (scFv, V domains shown)
VH: B2 VH with V5Q, Q6E, E73D
VL: SYVLTQPPSASGTPGQRVTISCSGSSSNIGSNTVHWYQQLPETAPKLLIYTNNQRPSGVPDRFSGSKSGTSASLAISGLQSEDEADYYCASWDDSLKAYVFGTRTKLTVL
notes: phage scFv
B26: N1wc202 (scFv, V domains shown)
VH: B2 VH with Q1E, E73D, M109L
VL: SYELTQPPSVSGTPGQRVTISCSGSSSNIESNAVHWYQHLPGRAPKLLIFSHNQRPSGVPARFSGSKSGTSASLAISGLQSEDEADYYCAAWDDSLSGYVFASGTKLTVL
notes: phage scFv
B27: N1wc520 (scFv, V domains shown)
VH: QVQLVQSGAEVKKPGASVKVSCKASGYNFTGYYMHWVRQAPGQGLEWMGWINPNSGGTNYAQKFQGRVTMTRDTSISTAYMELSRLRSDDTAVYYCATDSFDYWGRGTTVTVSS
VL: B26 VL with E3V, L107V
notes: phage scFv
B28: N1wc625 (scFv, V domains shown)
VH: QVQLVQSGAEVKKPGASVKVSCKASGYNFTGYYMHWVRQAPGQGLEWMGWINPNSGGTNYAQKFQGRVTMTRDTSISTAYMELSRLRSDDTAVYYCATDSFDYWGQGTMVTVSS
VL: QSVLTQPPSASGTPGQRVTISCSGGRSNIGTNYVYWYQKLPGTAPKSLIYTTNQRPSGVPDRFSGSKAGTSASLAISGLRSEDEGDYYCASWDESLNGVVFGGGTKVTVL
notes: phage scFv
B29: N1wc175 (scFv, V domains shown)
VH: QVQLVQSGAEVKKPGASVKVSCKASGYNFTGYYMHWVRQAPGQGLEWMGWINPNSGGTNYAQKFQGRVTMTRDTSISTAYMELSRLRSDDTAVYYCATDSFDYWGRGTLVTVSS
VL: QSVLTQPPSASGTPGQRVTISCSGSRSSIGSNTVSWYQQLPGTAPKLIIYTNNQRPSGVPDRFSGSKSGTSATLAISGLQSEDEADYYCASWDDSLNDYVFGVGTKVTVL
notes: phage scFv
B30: N1wc157 (scFv, V domains shown)
VH: QVQLVQSGAGLKRPGTSVKISCKTSGYIFSQYPMHWVRQAPGQGLEWVAWVDTGNGTTRYSPNFQGRATVSGDTSANTGYLELRSLRFTDTAVYYCATNAFDYWGRGTLVTVSS
VL: SYELTQPPSVSVSPGQTARITCSGDALPDKYVHWYQQKSGQAPVLVLFDDSKRPSGIPERFSGSSSGTVATLIISGAQVEDEGDFFCYSTDSSGNERVFGGGTKLTVL
notes: phage scFv

The binders below were run against T1, human full-length Notch3 with C-terminal FLAG tag, stably expressed on 293 FlpIn (TREx) cells (human, UniProt Q9UM47 40-2321) (assay: FACS, phage scFv).
T1 construct: whole, on cells; made by the same strategy as the Notch1 line; also called 293-N3; hN3

Binder | binding result
B1 | binds
B2 | binds
B3 | binds
B4 | binds
B5 | binds
B6 | binds
B7 | binds
B8 | binds
B9 | binds
B10 | binds
B11 | binds
B12 | binds
B13 | binds
B14 | binds
B15 | binds
B16 | binds
B17 | binds
B18 | binds
B19 | binds
B20 | binds
B21 | binds
B22 | binds
B23 | binds
B24 | binds

What follows are binders tested against T2, human full-length Notch1 with C-terminal FLAG tag, stably expressed on 293 FlpIn (TREx) cells (human, UniProt P46531 19-2555) (assay: FACS, phage scFv).
T2 construct: tetracycline/doxycycline-induced expression from pcDNA5/FRT/TO-HN1+FLAG; also called hN1; 293_N1

Binder | binding result
B25 | binds
B26 | binds
B27 | binds
B7 | binds
B8 | binds
B9 | binds
B10 | binds
B12 | binds
B13 | binds
B15 | binds
B16 | binds
B28 | binds
B29 | binds
B30 | binds

Reference: patent US20110286916A1 (published 2011)
